We go through 2 sequences from patent publication US5935824A, “Protein expression system” (Technologene, Inc., priority 1996, dated 1999).

No end group written: not given here.

The target in data set [1] is T1, CPD-Y immobilized on cross-linked agarose (Saccharomyces cerevisiae, UniProt P00729).
T1 construct: purchased Pierce
T1 sequence (P00729 112-532): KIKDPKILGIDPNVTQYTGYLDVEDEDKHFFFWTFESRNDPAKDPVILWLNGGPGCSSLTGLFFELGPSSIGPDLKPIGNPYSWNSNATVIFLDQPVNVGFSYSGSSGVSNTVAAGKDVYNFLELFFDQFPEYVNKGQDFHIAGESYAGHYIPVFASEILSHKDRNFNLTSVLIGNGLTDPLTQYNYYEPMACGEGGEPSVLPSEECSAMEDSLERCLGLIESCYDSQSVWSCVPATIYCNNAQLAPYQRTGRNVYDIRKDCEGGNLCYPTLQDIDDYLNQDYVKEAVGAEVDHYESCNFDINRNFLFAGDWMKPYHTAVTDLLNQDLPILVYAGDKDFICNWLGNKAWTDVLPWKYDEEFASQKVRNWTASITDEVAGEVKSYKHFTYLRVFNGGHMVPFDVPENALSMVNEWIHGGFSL
Briefly: Recirculating digestion of control peptide over CPD-Y/agarose column, HPLC. The conditions noted are these: 100 μg/ml in PBS pH 6.5; gravity flow. It is filed as biochemical, yeast. The method, then:
Ten milliliters of a solution containing 100 μg/ml of the control peptide in PBS (pH 6.5) was repeatedly passed through 1 ml of a matrix consisting of CPD-Y immobilized on cross-linked agarose (12.5 U/ml, Pierce). The 10 ml sample was applied to the top of a 1.0 cm Affinica column (Schleicher & Schuell) containing 1.0 ml of the immobilized CPD-Y/agarose and allowed to flow by gravity. An aliquot (100 μl) of the digestion reaction were taken and the remaining sample was reapplied to the column as the previous sample approached the matrix (i.e., the sample was recirculated through the column). Aliquots (100 μl) were removed after 1, 5, 11 and 17 passes over the immobilized CPD-Y/agarose column; 20 μl of these aliquots were analyzed by high pressure liquid chromatography (HPLC) using a TFA/acetonitrile gradient and a C-18 column (Hytach protein column). A Shimadzu HPLC spectrophotometer equipped with a UV recorder was adjusted to analyze the digestion products at 210 nm. The following buffers were used for the HPLC analysis. Buffer A consisted of 1.125% TFA and Buffer B consisted of 1.0% TFA in 80% acetonitrile. To achieve separation of the peptides produced by CPD-Y digestion of the control peptide, a gradient of 0-30% B buffer was applied over a 30 minute period.

The target in data set [2] is T2, carboxypeptidase Y (CPD-Y) immobilized to Acti-Disk (Saccharomyces cerevisiae, UniProt P00729).
T2 construct: purchased Sigma
T2 sequence (P00729 112-532): T1 sequence (P00729 112-532)
As to the kind of experiment: Flow digestion of control peptide through CPD-Y immobilized on Acti-Disk, HPLC analysis. The format is biochemical, yeast. The method, then:
To achieve limited, specific digestion of the control peptide (i.e., removal of the phenylalanine residue only) approximately 4 mg of CPD-Y (Sigma) was immobilized to a pre-activated (GTA) Acti-Disk Cartridge (25 mm; Arbor Technologies). The silicon-based matrix within the Acti-Disk is described in U.S. Pat. No. 3,862,030, the disclosure of which is herein incorporated by reference. Essentially, this matrix is a microporous fluid-permeable filter that has finely divided hydrophilic filler particles dispersed throughout a microporous matrix which are capable of binding large amounts of protein or enzyme. The matrix has an extremely large surface area (80 m^2 /gram) attributed to a large number of interconnected pores of non-uniform size distribution. The matrix is 60% porous and is commercially available in a wide variety of sizes and thicknesses for scale-up. This matrix represents a limited-diffusional matrix.
Immobilization of CPD-Y to the Acti-Disk cartridge was accomplished by recirculating 10 mls of a solution containing 1 mg/ml CPD-Y in 100 mM Na Citrate (pH 6.0) through the Acti-Disk according to the manufacturers protocol for 90 minutes at room temperature. The OD280 of the CPD-Y solution was measured before and after the immobilization procedure. The disk was washed extensively with 100 mM Tris-HCl (pH 8.0), 500 mM NaCl buffer until no protein was detected in the wash. The final concentration of enzyme per available fluid volume within the disk (65 nmoles/115 μl) was 0.565 mM (35 mg/ml). The porous nature of the Acti-Disk matrix immobilizes the carboxypeptidase enzyme on the […] of the matrix allowing a more consistent exposure of the substrate to enzyme than do the traditional cross linked agarose matrixes.
The control peptide (SEQ ID NO:70), at a concentration of 100 μg/ml, was passed through the CPD-Y Disk at flow rates ranging from 4 ml/min to 100 μl/min; a […] pump (Pharmacia) was used to regulate the flow. A 2 ml sample of the flow digestion at 4 ml/min was collected. The setting on the peristaltic pump was changed to 3 ml/min and the reaction was allowed to equilibrate. Five milliliters of the solution containing the control peptide processed at the lower flow rate (3 ml/min) was allowed to pass through the exit tubing before another 2 ml sample was collected. This procedure was repeated at each designated flow rate. An aliquot (25 μl) of each sample was run on the Hytach protein column as described above. In Table 4 the time refers to time spent in the reaction chamber (i.e., the Acti-Disk).
This value was determined by comparing the initial velocity of the control peptide CPD-Y-Acti-Disk flow digestion to the manufacturer's specific activity for free enzyme (i.e., enzyme present in solution) through the use of the Michaelis-Menton rate equation. The specific activity for Phe-Ala substrate 100 μmoles/mg (Sigma) was converted to activity by multiplying by the amount of enzyme immobilized within the Acti-Disk matrix (4 mg). […] This value compares well to the value that can be approximated from the Kcat data provided by Kuhn. The Kcat value for the cleavage of the Ser-Phe bond by free CPD-Y can be deduced from Kuhn's data to be approximately 400/min and this value was used to calculate the maximum initial velocity (Vo at [S]=79 μM) for 100% activity of the immobilized enzyme. […] 100% activity (Vo) for 79 μM flow digestion experiments is calculated using the theoretical KM =0.69 mM deduced from Kuhn's data, Vo=23.2 mM/min. Initial velocity Vo for control peptide flow experiments were determined by plotting μM of product produced versus seconds of incubation within the immobilization matrix of the Acti-Disk (see FIG. 29).
In FIG. 29, the log ([S]/[S]-[P]) (in μM) is plotted against the incubation time (in seconds). For the results shown in FIG. 29, the following calculations apply: the 4000 μl/min flow rate through 115 μl reaction matrix equals 1.73 seconds within the matrix. […]

The target of data set [3] is T2, carboxypeptidase Y (CPD-Y) immobilized to Acti-Disk. The conditions noted are these: free CPD-Y; deduced from Kuhn; cited from earlier work.
The target is the same in data set [4]. As to the kind of experiment: Flow digestion of Lys-Lys peptide through CPD-Y Acti Disk, modified ninhydrin assay. It is filed as biochemical, yeast. Particulars: 400 μM peptide; pH 5.75; flow 2 ml/min and 500 μl/min. As for the experimental part:
The peptide sequence is […](SEQ ID NO:73) (Sigma; herein after referred to as the Lys-Lys peptide). Analysis of the of the reaction rates required the use of a modified ninhydrin assay developed by Doi, et al. for the analysis of peptidase activity [Anal. Biochem. 118:173 (1981)]. Compared to the ninhydrin assays described above, the pH of the ninhydrin solution is reduced (pH=4.6) and the heating time is shortened (less than or equal to 20 minutes) such that only free amino acids react at appreciable rates. Incubation times were strictly controlled by performing incubation at elevated temperatures in a programmable thermocycler (Hybaid).
The Lys-Lys peptide was suspended at a concentration of 400 μM in 100 mM Citrate buffer, 100 mM NaCl, pH 5.75 and subjected to flow digestions at 2 ml/min and 500 μl/min. The amount of free lysine released was quantified by mixing 200 μl of flow sample with 200 μl 0.2 M NaCitrate, pH 4.6 and 100 μl of 2.5% ninhydrin in methyl cellusolve (Sigma), 0.03% ascorbic acid. […] The OD570 was determined and the values were converted to μM of product in order to determine the first order rate constant for the Lys-Lys bond in the CPD-Y Acti Disk flow digestion (k=0.160). This is the same value determined for the N-CBZ-Gly-Pro dipeptide. […]

ALKDAQTNSSSF [control peptide]: the “Passes needed to substantially decrease the amount of full length peptide” value in data set [1] was over 15 passes. In data set [2] (79 μM control peptide, initial slope of fitted curve), the “Initial reaction rate (Vo), observed” value is recorded as about 3.6 mM/min. Moreover, the “Cleavage of the ultimate bond (Ser-Phe)” value in data set [2] (100 μg/ml, single pass, flow rate 500 μl/ml (so in the source)) was determined as 86%; in data set [2] (5 ml recirculated 20 minutes at the same flow rate), 96%. The “Vmax for 100% activity” value in data set [2] (Kcat 400/min × 0.565 mM enzyme) is 226 mM/min. Moreover, in data set [2] ([S]=79 μM, theoretical KM 0.69 mM), the “Vo for 100% activity of the immobilized enzyme” value turned out to be 23.2 mM/min. Also, the “Product” value amounted to 72 µM in data set [2] (control peptide 100 μg/ml, flow rate 0.25 ml/min, 27.6 sec in Acti-Disk); 68 µM in data set [2] (flow rate 0.50 ml/min, 13.8 sec); 59 µM in data set [2] (flow rate 1.0 ml/min, 6.9 sec); 54 µM in data set [2] (flow rate 1.5 ml/min, 4.6 sec); 48 µM in data set [2] (flow rate 2.0 ml/min, 3.45 sec); 45 µM in data set [2] (flow rate 2.5 ml/min, 2.76 sec). The “Product” value in data set [2] (flow rate 3.0 ml/min, 2.3 sec) amounted to 43 µM; in data set [2] (flow rate 4.0 ml/min, 1.73 sec), 39 µM. The “% Product Remaining” value in data set [2] (control peptide 100 μg/ml, flow rate 0.25 ml/min, 27.6 sec in Acti-Disk, 0.46 min) is given as 8.3%; in data set [2] (flow rate 0.50 ml/min, 13.8 sec, 0.23 min) it was 14.0%; in data set [2] (flow rate 1.0 ml/min, 6.9 sec, 0.115 min) it was 25.6%; in data set [2] (flow rate 1.5 ml/min, 4.6 sec, 0.0766667 min), 32.4%; in data set [2] (flow rate 2.0 ml/min, 3.45 sec, 0.0575 min), 38.7%; in data set [2] (flow rate 2.5 ml/min, 2.76 sec, 0.046 min) it was 42.8%. Moreover, the “% Product Remaining” value in data set [2] (flow rate 3.0 ml/min, 2.3 sec, 0.0383333 min) was determined as 46.4%; in data set [2] (flow rate 4.0 ml/min, 1.73 sec, 0.0288333 min), 51.5%. For the same sequence, in data set [2] (recirculation at 500 μl/min), the “Cleavage of the second bond (Ser-Ser)” value is given as “not detectably cleaved”. Further, the “Control peptide molecules with carboxy-terminal phenylalanine removed” value in data set [2] (varied flow rate and substrate concentration) is reported as “approximately 96%”. In data set [3], the “Estimated Km for the Ser-Phe bond” value is 690 µM. Besides, the “Kcat for the Ser-Phe bond” value in data set [3] is 6.67 s⁻¹.

For PLSRLSVAKK [Lys-Lys peptide], the “First order rate constant for the Lys-Lys bond (k)” value in data set [4] was determined as 0.160.
